No end group written: not given here. TMR = tetramethyl rhodamine dye
Key:
Test in all cases: fluorescence polarisation; 25 °C; unlabeled Rb^P titrated against 1.5 nM TMR-E2F1^TD or 7.5 nM TMR-E7^LxCxE; 25 mM Tris pH 8.0, 200 mM NaCl, 1 mM DTT, 0.1% Tween-20; 2 min incubation; quadratic fit; apparent Kd for the variants, Kd for WT
Conditions in all cases: both partners purified
Rb^P K462T = molecular target: T1, Rb^P K462T (human, UniProt P06400 380-788, K462T)
T1 construct: also called variant 9
T1 sequence (looked up): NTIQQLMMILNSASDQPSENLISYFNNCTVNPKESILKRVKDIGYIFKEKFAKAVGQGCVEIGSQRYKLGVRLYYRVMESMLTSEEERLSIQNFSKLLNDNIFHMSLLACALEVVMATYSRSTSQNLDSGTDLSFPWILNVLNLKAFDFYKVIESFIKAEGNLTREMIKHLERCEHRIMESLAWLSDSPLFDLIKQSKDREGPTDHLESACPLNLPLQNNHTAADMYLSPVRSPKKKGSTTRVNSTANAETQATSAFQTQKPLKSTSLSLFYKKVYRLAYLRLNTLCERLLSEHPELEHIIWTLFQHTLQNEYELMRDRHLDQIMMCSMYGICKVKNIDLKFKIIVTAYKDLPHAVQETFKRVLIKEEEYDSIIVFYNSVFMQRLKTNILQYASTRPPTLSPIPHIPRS

Rb^P E554K = molecular target: T2, Rb^P E554K (human, UniProt P06400 380-788, E554K)
T2 construct: also called variant 28
T2 sequence (looked up): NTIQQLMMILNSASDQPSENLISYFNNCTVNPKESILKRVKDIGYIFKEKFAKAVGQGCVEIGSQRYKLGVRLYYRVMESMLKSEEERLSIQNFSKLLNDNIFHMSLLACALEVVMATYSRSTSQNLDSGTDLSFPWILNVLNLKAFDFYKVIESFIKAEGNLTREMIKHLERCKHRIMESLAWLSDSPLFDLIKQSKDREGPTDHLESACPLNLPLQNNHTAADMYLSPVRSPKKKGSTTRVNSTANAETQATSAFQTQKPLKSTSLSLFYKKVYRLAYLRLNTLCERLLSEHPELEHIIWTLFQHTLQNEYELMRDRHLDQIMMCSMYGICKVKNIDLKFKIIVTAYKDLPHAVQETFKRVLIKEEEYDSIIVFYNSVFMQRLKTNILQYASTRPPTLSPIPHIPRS

Rb^P P595L = molecular target: T3, Rb^P P595L (human, UniProt P06400 380-788, P595L)
T3 construct: also called variant 35
T3 sequence (looked up): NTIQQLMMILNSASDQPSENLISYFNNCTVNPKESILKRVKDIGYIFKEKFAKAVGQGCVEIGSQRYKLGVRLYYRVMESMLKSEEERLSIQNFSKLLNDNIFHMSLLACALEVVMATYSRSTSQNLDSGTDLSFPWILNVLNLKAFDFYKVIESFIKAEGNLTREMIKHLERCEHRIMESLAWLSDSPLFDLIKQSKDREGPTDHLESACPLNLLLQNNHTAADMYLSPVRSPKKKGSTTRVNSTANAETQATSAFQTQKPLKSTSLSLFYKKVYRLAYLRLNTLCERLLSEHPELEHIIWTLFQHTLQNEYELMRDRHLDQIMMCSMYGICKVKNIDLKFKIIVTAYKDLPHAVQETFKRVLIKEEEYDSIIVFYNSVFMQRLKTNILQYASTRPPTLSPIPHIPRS

Rb^P Y606C = molecular target: T4, Rb^P Y606C (human, UniProt P06400 380-788, Y606C)
T4 construct: also called variant 37
T4 sequence (looked up): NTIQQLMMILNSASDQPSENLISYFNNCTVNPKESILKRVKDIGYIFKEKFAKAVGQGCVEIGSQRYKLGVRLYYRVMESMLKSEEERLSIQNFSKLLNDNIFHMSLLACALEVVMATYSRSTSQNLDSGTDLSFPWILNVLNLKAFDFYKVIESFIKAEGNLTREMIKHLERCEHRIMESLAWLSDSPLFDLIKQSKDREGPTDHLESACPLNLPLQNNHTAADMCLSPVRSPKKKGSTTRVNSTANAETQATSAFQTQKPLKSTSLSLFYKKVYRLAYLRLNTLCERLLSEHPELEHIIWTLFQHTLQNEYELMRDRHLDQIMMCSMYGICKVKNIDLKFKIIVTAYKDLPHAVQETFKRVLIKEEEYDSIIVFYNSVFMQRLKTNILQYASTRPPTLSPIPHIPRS

Rb^P T620M = molecular target: T5, Rb^P T620M (human, UniProt P06400 380-788, T620M)
T5 construct: also called variant 40
T5 sequence (looked up): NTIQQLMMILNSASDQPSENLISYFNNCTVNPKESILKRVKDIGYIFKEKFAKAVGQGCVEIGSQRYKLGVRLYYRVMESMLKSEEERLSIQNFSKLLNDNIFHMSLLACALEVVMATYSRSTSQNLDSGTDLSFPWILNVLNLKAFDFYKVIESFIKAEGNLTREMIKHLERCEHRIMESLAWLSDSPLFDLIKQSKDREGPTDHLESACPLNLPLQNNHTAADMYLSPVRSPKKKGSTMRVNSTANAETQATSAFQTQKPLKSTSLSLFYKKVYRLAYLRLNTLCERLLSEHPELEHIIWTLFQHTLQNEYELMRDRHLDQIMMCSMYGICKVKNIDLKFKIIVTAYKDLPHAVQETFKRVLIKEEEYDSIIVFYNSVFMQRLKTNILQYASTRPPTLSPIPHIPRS

B1: TMR-E2F1^TD, peptide of the E2F1 transactivation domain (peptide)
peptide: {TMR}-GEGIRDLFDCDFGDLTPLD
notes: also called E2F^TD; source: synthetic peptide, bought: GenScript
B1 showed a Kd (Rb^P K462T) of 30 nM, a Kd (Rb^P E554K) of 1170 nM and a Kd (Rb^P P595L) of 46 nM. For the same binder, the Kd (Rb^P Y606C) was 15 nM and the Kd (Rb^P T620M) was 24 nM.

B2: TMR-E7^LxCxE, LxCxE peptide of the E7 oncoprotein from HPV (peptide)
peptide: DLYCYEQLN
modifications: also: TMR label, position not given here
notes: source: synthetic peptide, bought: GenScript
Binder B2 has a Kd (Rb^P K462T) of 8 nM, a Kd (Rb^P E554K) of 12 nM and a Kd (Rb^P P595L) of 14 nM. The Kd (Rb^P Y606C) was 7 nM and the Kd (Rb^P T620M) was 6 nM.
